Laboratory results taken from publication PMC4685450, “Crystal Structure of Human SSRP1 Middle Domain Reveals a Role in DNA Binding”.

How the values were obtained:
Conditions in all cases: protein: recombinant; tags: N-terminal 6xHis; blunt
SSRP1-N = SSRP1-N (Homo sapiens, UniProt Q08945 1-176); assay: EMSA (agarose); EMSA buffer, salt, pH and temperature not given in the material; proteins purified in 20 mM Tris-HCl, 200 mM NaCl, pH 7.0
SSRP1-C = SSRP1-C (Homo sapiens, UniProt Q08945 513-709); assay: as above
Sequence of SSRP1-C (Q08945 513-709): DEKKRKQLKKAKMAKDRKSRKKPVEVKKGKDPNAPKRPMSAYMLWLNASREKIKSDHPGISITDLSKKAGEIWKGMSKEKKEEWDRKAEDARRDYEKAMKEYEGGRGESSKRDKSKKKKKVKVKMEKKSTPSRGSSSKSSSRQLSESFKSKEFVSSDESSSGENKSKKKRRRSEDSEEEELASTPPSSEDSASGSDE

SSRP1-M [1] = target: T1, SSRP1-M (Homo sapiens, UniProt Q08945 196-430); assay: EMSA (agarose and native PAGE); oligomerized complex in wells; EMSA buffer, salt, pH and temperature not given in the material; proteins purified in 20 mM Tris-HCl, 200 mM NaCl, pH 7.0
T1 sequence (Q08945 196-430): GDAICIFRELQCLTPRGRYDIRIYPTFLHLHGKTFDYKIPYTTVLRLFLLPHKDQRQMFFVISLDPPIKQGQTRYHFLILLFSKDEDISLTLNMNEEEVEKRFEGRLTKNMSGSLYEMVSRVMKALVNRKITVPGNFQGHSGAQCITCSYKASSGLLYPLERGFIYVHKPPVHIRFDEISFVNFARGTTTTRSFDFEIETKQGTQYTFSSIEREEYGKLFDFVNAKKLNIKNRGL

SSRP1-M [2] = target: T1, SSRP1-M; assay: EMSA; no obvious difference from linker DNA; EMSA buffer, salt, pH and temperature not given in the material; proteins purified in 20 mM Tris-HCl, 200 mM NaCl, pH 7.0

Sequence of SSRP1-N (Q08945 1-176): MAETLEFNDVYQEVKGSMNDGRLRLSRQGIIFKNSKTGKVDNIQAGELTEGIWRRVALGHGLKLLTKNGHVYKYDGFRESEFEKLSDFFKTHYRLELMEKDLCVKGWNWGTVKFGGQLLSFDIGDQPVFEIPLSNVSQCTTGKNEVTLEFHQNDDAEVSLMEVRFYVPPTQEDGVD

Binder	binding result (SSRP1-N)	binding result (SSRP1-C)	binding result (SSRP1-M [1])	binding result (SSRP1-M [2])
30-bp linker dsDNA (dsDNA) DNA 1: TCCAGTGCCGGTGTCGCTTGGGTCCCGAGG DNA 2: CCTCGGGACCCAAGCGACACCGGCACTGGA	no binding	binds	binds	
GC-rich dsDNA (dsDNA) DNA 1: GCGGCCCGCGCCCGCCGCCCCGCCGCGGCC DNA 2: GGCCGCGGCGGGGCGGCGGGCGCGGGCCGC				binds
AT-rich dsDNA (dsDNA) DNA 1: ATAATTTATATTTATTATTTTATTATAATT DNA 2: AATTATAATAAAATAATAAATATAAATTAT				binds
